Test results from patent US20250326840A1 (QURE BIOTECHNOLOGY SHANGHAI, published 2025).
Residue numbers refer to the chain shown, from its start. Names may count otherwise.

T1: SIRPα V4 fusion Fc (mouse IgG2a) (human, limits assumed)
T1 chain: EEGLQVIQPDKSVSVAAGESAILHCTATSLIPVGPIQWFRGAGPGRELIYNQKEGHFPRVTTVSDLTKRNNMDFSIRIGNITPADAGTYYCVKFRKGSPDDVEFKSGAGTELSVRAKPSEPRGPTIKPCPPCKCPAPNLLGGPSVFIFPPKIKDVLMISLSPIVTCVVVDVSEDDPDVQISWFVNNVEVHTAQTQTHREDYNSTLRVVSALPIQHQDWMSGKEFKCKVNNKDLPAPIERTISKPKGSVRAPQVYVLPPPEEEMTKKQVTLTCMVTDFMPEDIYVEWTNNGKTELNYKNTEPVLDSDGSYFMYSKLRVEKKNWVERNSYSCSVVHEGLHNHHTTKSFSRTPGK

T2: SIRPα V5 fusion Fc (mouse IgG2a) (human, limits assumed)
T2 chain: T1 chain with G3E, S12F, S14L, S20T, I22T, H24R

T3: SIRPα V6 fusion Fc (mouse IgG2a) (human, limits assumed)
T3 chain: T1 chain with G3E, S14L, S20T, I22T, H24R, S75P

T4: SIRPα V9 fusion Fc (mouse IgG2a) (human, limits assumed)
T4 chain: T1 chain with G3E, S14L, S20T, I22T, H24R, G79S

T5: QP535 (SIRPαV6-mFC(mIgG2a)) (human, limits assumed)
T5 construct: also called human SIRPα V6 recombinant protein (QP535)
T5 chain: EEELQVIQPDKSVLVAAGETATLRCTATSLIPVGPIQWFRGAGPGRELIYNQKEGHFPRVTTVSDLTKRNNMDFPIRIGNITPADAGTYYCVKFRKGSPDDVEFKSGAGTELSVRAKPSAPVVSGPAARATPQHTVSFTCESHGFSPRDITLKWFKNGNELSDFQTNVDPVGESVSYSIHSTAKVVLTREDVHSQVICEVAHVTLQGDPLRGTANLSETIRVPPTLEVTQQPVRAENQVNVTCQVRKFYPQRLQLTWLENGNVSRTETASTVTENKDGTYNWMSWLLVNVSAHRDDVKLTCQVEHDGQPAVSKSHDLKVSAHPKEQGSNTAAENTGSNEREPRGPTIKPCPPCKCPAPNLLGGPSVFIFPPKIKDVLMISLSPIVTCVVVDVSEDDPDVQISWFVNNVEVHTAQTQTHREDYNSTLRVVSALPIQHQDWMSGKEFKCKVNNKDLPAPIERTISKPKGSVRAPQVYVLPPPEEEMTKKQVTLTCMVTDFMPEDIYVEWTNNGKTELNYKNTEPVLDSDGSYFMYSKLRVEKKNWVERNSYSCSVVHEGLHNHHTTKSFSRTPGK

B1: QP256279 (antibody, human IgG4, V domains shown)
VH: QVQLVQSGAEVKKPGASVKVSCKASGYTFTNYWINWVRQAPGQGLEWIAMIDPSDSETHYNQIFKDRATLTTDTSTSTAYMELRSLRSDDTAVYYCAMDYGSLYAMDYWGRGTLVTVSS
VL: DIVLTQSPDSLAVSLGERATINCRASQSVRSSGYNWIFWYQQKPGQPPKLLIYLASNRDSGVPDRFSGSGSGTDFTLTISSLQAEDVAVYYCQHSRELPTFGQGTKLEIK
notes: Human IgG4 heavy constant region and kappa CL
B2: QP32700279 (antibody, human IgG1, kappa, L234A L235A, V domains shown)
VH: B1 VH
VL: DIVLTQSPDSLAVSLGERATINCRASQSVRSSGYNWIFWYQQKPGQPPKLLIYLASNRDSGVPDRFSGSGSGTDFTLTISSLQAEDVAVYYCQHSRELPTFGQGTKLEIKR
notes: also called SIRPα monoclonal antibody CHO71
B3: QP37503751 (1H9 analog) (antibody, human IgG1, kappa, N297A, V domains shown)
VH: QVQLVQSGAEVKKPGASVKVSCKASGYTFTSYWITWVKQAPGQGLEWIGDIYPGSGSTNHIEKFKSKATLTVDTSISTAYMELSRLRSDDTAVYYCATGYGSSYGYFDYWGQGTLVTVSS
VL: DIQMTQSPSSLSASVGDRVTITCRASENIYSYLAWYQQKPGKAPKLLIYTAKTLAEGVPSRFSGSGSGTDFTLTISSLQPEDFATYYCQHQYGPPFTFGQGTKLEIKR
notes: also called hz1H9 hIgG1(N297A)
B4: QP250251 (18D5 analog) (antibody, human IgG4 S228P, kappa, V domains shown)
VH: QVQLQQPGAELVRPGSSVKLSCKASGYTFTSYWVHWVKQRPIQGLEWIGNIDPSDSDTHYNQKFKDKASLTVDKSSSTAYMQLSSLTFEDSAVYYCVRGGTGTMAWFAYWGQGTLVTVSA
VL: DVVMTQTPLSLPVSLGDQASISCRSSQSLVHSYGNTYLYWYLQKPGQSPKLLIYRVSNRFSGVPDRFSGSGSGTDFTLKISRVEAEDLGVYFCFQGTHVPYTFGSGTKLEIKR
notes: also called SIRPα antibody 18D5 from OSE
B5: QP026249 (KWAR23 analog) (antibody, human IgG4 S228P, kappa)
heavy: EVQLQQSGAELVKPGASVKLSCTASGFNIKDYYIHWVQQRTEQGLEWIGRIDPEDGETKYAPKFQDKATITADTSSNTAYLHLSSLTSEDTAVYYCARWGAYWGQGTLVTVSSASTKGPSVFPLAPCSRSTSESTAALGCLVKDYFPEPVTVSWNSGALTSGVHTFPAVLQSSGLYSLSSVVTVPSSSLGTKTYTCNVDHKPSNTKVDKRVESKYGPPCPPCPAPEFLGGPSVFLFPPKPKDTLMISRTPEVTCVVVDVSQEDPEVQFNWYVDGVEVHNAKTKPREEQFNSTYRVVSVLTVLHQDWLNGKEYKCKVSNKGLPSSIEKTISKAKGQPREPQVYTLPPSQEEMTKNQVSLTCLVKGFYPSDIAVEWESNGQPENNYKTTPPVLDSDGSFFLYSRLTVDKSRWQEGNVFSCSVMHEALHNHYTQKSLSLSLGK
light: QIVLTQSPAIMSASPGEKVTLTCSASSSVSSSYLYWYQQKPGSSPKLWIYSTSNLASGVPARFSGSGSGTSYSLTISSMEAEDAASYFCHQWSSYPRTFGAGTKLELKRTVAAPSVFIFPPSDEQLKSGTASVVCLLNNFYPREAKVQWKVDNALQSGNSQESVTEQDSKDSTYSLSSTLTLSKADYEKHKVYACEVTHQGLSSPVTKSFNRGEC
notes: also called KAWA23 analog; control antibody KWAR23 (QP026249), human IgG4

Legend:
[1] = molecular target: T1, SIRPα V4 fusion Fc (mouse IgG2a); assay: ELISA, SIRPα V4-mouse IgG2a Fc coated, anti-hFab detection; unit from the x axis Log(Conc.(nM))
[2] = molecular target: T2, SIRPα V5 fusion Fc (mouse IgG2a); assay: ELISA, SIRPα V5-mouse IgG2a Fc coated, anti-hFab detection; unit from the x axis Log(Conc.(nM))
[3] = molecular target: T3, SIRPα V6 fusion Fc (mouse IgG2a); assay: ELISA, SIRPα V6-mouse IgG2a Fc coated, anti-hFab detection; unit from the x axis Log(Conc.(nM))
[4] = molecular target: T4, SIRPα V9 fusion Fc (mouse IgG2a); assay: ELISA, SIRPα V9-mouse IgG2a Fc coated, anti-hFab detection; unit from the x axis Log(Conc.(nM))
[5] = molecular target: T6, human SIRPα V2 on THP-1 cells (human, UniProt P78324 31-504); assay: FACS on THP-1 cells
T6 construct: whole, on cells; also called THP-1 (human SIRPα V2)

[6] = molecular target: T5, QP535 (SIRPαV6-mFC(mIgG2a)); assay: ELISA, human SIRPα V6 recombinant protein (QP535) coated, HRP anti-human Fc detection
[7] = molecular target: T7, QP537 (SIRPαV8-mFC(mIgG2a)) (human); assay: ELISA, human SIRPα V8 recombinant protein (QP537) coated, HRP anti-human Fc detection
T7 construct: also called human SIRPα V8 recombinant protein (QP537)

T6 sequence (P78324 other isoform, or with tags, fused parts or gaps limits assumed): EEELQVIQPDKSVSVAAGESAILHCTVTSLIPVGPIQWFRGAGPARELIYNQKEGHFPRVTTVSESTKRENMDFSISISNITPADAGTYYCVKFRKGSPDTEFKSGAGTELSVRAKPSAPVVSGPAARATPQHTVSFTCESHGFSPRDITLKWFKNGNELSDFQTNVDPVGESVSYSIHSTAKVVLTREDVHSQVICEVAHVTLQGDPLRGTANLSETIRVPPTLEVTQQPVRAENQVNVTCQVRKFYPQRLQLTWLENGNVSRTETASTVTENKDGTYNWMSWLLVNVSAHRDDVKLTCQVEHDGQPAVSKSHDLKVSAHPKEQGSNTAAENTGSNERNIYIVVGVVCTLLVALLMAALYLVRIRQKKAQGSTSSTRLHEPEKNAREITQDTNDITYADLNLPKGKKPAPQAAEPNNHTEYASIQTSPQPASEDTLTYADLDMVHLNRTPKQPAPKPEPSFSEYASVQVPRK

| Binder | EC50 [1] [nM] | EC50 [2] [nM] | EC50 [3] [nM] | EC50 [4] [nM] | EC50 [5] [nM] | EC50 [6] [nM] | EC50 [7] [nM] | binding result [5] |
| --- | --- | --- | --- | --- | --- | --- | --- | --- |
| B1 | 0.0574 | 0.0691 | 0.053 | 0.0874 |  |  |  |  |
| B2 |  |  |  |  | 0.0743 | 0.224 | 0.341 |  |
| B3 |  |  |  |  | 0.21 | 0.273 | 0.908 |  |
| B4 | 0.125 | 0.13 | 0.114 | 0.157 |  | 0.884 |  | no binding |
| B5 | 0.115 | 0.144 | 0.119 | 0.181 | 0.261 | 0.603 | 0.689 |  |
